No end group written: not given here. *: point of attachment. kbt‑6‑CONH‑4‑pyridine = ketobenzothiazole-6-CONH-4-pyridine (Kbt-4-pyridinylamide), O=C(Nc1ccncc1)c1ccc2nc(*)sc2c1; kbt‑6‑COOH = ketobenzothiazole-6-COOH, O=C(O)c1ccc2nc(*)sc2c1; kbt = C-terminal ketobenzothiazole, c1ccc2sc(*)nc2c1; Kbt = ketobenzothiazole, c1ccc2sc(*)nc2c1
T1: matriptase (Charles Craik, UCSF), recombinant (Homo sapiens (Human), UniProt Q9Y5Y6)
T1 sequence: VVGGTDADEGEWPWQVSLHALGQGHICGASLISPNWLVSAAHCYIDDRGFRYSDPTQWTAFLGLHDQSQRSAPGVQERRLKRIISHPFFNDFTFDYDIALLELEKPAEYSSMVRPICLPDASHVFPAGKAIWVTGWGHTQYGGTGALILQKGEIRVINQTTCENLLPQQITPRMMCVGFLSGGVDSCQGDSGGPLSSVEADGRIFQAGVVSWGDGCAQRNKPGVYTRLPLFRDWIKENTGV

B1: Ac-KRLR(SEQ ID NO: 8)-Kbt (peptide)
peptide: Ac-KRLR-Kbt
SMILES: CC(=O)N[C@@H](CCCCN)C(=O)N[C@@H](CCCNC(=N)N)C(=O)N[C@@H](CC(C)C)C(=O)N[C@@H](CCCNC(=N)N)C(=O)c1nc2ccccc2s1
B2: H-WRLR(SEQ ID NO: 9)-Kbt (peptide)
peptide: H-WRLR-kbt
SMILES: CC(C)C[C@H](NC(=O)[C@H](CCCNC(=N)N)NC(=O)[C@@H](N)Cc1c[nH]c2ccccc12)C(=O)N[C@@H](CCCNC(=N)N)C(=O)c1nc2ccccc2s1
B3: Ac-SKLR(SEQ ID NO: 10)-Kbt (peptide)
peptide: Ac-SKLR-kbt
SMILES: CC(=O)N[C@@H](CO)C(=O)N[C@@H](CCCCN)C(=O)N[C@@H](CC(C)C)C(=O)N[C@@H](CCCNC(=N)N)C(=O)c1nc2ccccc2s1
B4: Ac-FLFR(SEQ ID NO: 19)-Kbt (peptide)
peptide: Ac-FLFR-Kbt
SMILES: CC(=O)N[C@@H](Cc1ccccc1)C(=O)N[C@@H](CC(C)C)C(=O)N[C@@H](Cc1ccccc1)C(=O)N[C@@H](CCCNC(=N)N)C(=O)c1nc2ccccc2s1
B5: Ac-SKLR(SEQ ID NO: 10)-Kbt-COOH (peptide)
peptide: Ac-SKLR-{kbt‑6‑COOH}
SMILES: CC(=O)N[C@@H](CO)C(=O)N[C@@H](CCCCN)C(=O)N[C@@H](CC(C)C)C(=O)N[C@@H](CCCNC(=N)N)C(=O)c1nc2ccc(C(=O)O)cc2s1

The binders below were run against Factor Xa (assay: selectivity inhibition assay).

| Binder | Ki |
| --- | --- |
| H-Trp-Leu-Arg-{kbt-Val-NH2} [H-WLR-kbt-Val-NH2] | 159 nM |
| H-Arg-Leu-Arg-{kbt-Val-NH2} [H-RLR-kbt-Val-NH2] | 18 nM |
| B1 | 91.9 nM |
| B2 | 2.4 nM |
| Ac-SKLR-{kbt‑6‑CO-Val-NH2} [Ac-SKLR(SEQ ID NO: 10)-Kbt-Val-NH2] | 385 nM |
| Ac-SKLR (not fully specified (C-terminus)) [Ac-SKLR(SEQ ID NO: 10)-Kbt-Trp-NH2] | 163 nM |
| Ac-SKLR (not fully specified (C-terminus)) [Ac-SKLR(SEQ ID NO: 10)-Kbt-Phe-NH2] | 544 nM |
| Ac-SKLR-{kbt‑6‑CONH‑4‑pyridine} [Ac-SKLR(SEQ ID NO: 10)-Kbt-4-pyridinylamide] | 221 nM |
| B3 | 1900 nM |
| B4 | 13.1 nM |
| B5 | 1250 nM |

The binders below were run against Trypsin (assay: selectivity inhibition assay).

| Binder | Ki |
| --- | --- |
| H-Trp-Leu-Arg-{kbt-Val-NH2} [H-WLR-kbt-Val-NH2] | 0.01 nM |
| H-Arg-Leu-Arg-{kbt-Val-NH2} [H-RLR-kbt-Val-NH2] | 0.31 nM |
| B1 | 0.82 nM |
| B2 | 0.96 nM |
| Ac-SKLR-{kbt‑6‑CO-Val-NH2} [Ac-SKLR(SEQ ID NO: 10)-Kbt-Val-NH2] | 0.34 nM |
| Ac-SKLR (not fully specified (C-terminus)) [Ac-SKLR(SEQ ID NO: 10)-Kbt-Trp-NH2] | 0.02 nM |
| Ac-SKLR (not fully specified (C-terminus)) [Ac-SKLR(SEQ ID NO: 10)-Kbt-Phe-NH2] | 0.27 nM |
| Ac-SKLR-{kbt‑6‑CONH‑4‑pyridine} [Ac-SKLR(SEQ ID NO: 10)-Kbt-4-pyridinylamide] | 1.06 nM |
| B3 | 0.16 nM |
| B4 | 0.27 nM |
| B5 | 0.03 nM |

What follows are binders tested against recombinant thrombin (assay: selectivity inhibition assay).

| Binder | Ki |
| --- | --- |
| H-Trp-Leu-Arg-{kbt-Val-NH2} [H-WLR-kbt-Val-NH2] | 41 nM |
| H-Arg-Leu-Arg-{kbt-Val-NH2} [H-RLR-kbt-Val-NH2] | 548 nM |
| B1 | > 20000 nM |
| B2 | 4890 nM |
| Ac-SKLR-{kbt‑6‑CO-Val-NH2} [Ac-SKLR(SEQ ID NO: 10)-Kbt-Val-NH2] | 4500 nM |
| Ac-SKLR (not fully specified (C-terminus)) [Ac-SKLR(SEQ ID NO: 10)-Kbt-Trp-NH2] | 1230 nM |
| Ac-SKLR (not fully specified (C-terminus)) [Ac-SKLR(SEQ ID NO: 10)-Kbt-Phe-NH2] | 3640 nM |
| Ac-SKLR-{kbt‑6‑CONH‑4‑pyridine} [Ac-SKLR(SEQ ID NO: 10)-Kbt-4-pyridinylamide] | 3430 nM |
| B3 | > 20000 nM |
| B4 | > 20000 nM |
| B5 | > 2000 nM |

The binders below were run against Recombinant human hepsin (4776-SE-010, R&D Systems), activated (human, UniProt P05981) (assay: fluorogenic inhibition assay).
Procedure: (§1) Inhibitors (11-pt serial dilutions, 0-20 μM final concentration in reaction) were serially diluted in DMSO (2% DMSO final concentration) and then mixed with either recombinant serine protease domain of HGFA [Z. Han, P. K. Harris, D. E. Jones, R. Chugani, T. Kim, M. Agarwal, W. Shen, S. A. Wildman, J. W. Janetka, Acs Med Chem Lett 2014, 5, 1219-1224], matriptase (Charles Craik, UCSF) or hepsin* (#4776-SE-010, R&D Systems, Minneapolis, Minn.) in black 384 well plates (Corning #3575. Corning, N.Y.). […] The final substrate concentrations for all assays were at the Kₘ for the respective enzymes. Changes in fluorescence (excitation at 380 nm and emission at 460 nm) were measured at room temperature over time in a Biotek Synergy 2 plate reader (Winnoski, Vt.). Using GraphPad Prism version 6.04 software program, (GraphPad Software, San Diego, Calif., www.graphpad.com), a four parameter curve fit was used to determine the inhibitor IC₅₀s from a plot of the mean reaction velocity versus the inhibitor concentration. The IC₅₀ values represent the average of three separate experimental determinations.
(§2) Fluorescent inhibitor and chromogenic proteolytic assays were performed in general accordance with the procedures described in Example 4 for compounds prepared in Examples 5 and 6.

| Binder | Ki |
| --- | --- |
| H-Trp-Leu-Arg-{kbt-Val-NH2} [H-WLR-kbt-Val-NH2] | 1.31 nM |
| H-Arg-Leu-Arg-{kbt-Val-NH2} [H-RLR-kbt-Val-NH2] | 0.44 nM |
| B1 | 0.112 nM |
| B2 | 0.12 nM |
| Ac-SKLR-{kbt‑6‑CO-Val-NH2} [Ac-SKLR(SEQ ID NO: 10)-Kbt-Val-NH2] | 0.19 nM |
| Ac-SKLR (not fully specified (C-terminus)) [Ac-SKLR(SEQ ID NO: 10)-Kbt-Trp-NH2] | 0.098 nM |
| Ac-SKLR (not fully specified (C-terminus)) [Ac-SKLR(SEQ ID NO: 10)-Kbt-Phe-NH2] | 0.14 nM |
| Ac-SKLR-{kbt‑6‑CONH‑4‑pyridine} [Ac-SKLR(SEQ ID NO: 10)-Kbt-4-pyridinylamide] | 0.14 nM |
| B3 | 0.16 nM |
| B4 | 1.44 nM |
| B5 | 0.173 nM |

These binders were tested against T1, matriptase (Charles Craik, UCSF), … (assay: fluorogenic inhibition assay).
Procedure: as §1, §2

| Binder | Ki |
| --- | --- |
| H-Trp-Leu-Arg-{kbt-Val-NH2} [H-WLR-kbt-Val-NH2] | 49.2 nM |
| H-Arg-Leu-Arg-{kbt-Val-NH2} [H-RLR-kbt-Val-NH2] | 4.2 nM |
| B1 | 0.54 nM |
| B2 | 3.79 nM |
| Ac-SKLR-{kbt‑6‑CO-Val-NH2} [Ac-SKLR(SEQ ID NO: 10)-Kbt-Val-NH2] | 10.3 nM |
| Ac-SKLR (not fully specified (C-terminus)) [Ac-SKLR(SEQ ID NO: 10)-Kbt-Trp-NH2] | 3.74 nM |
| Ac-SKLR (not fully specified (C-terminus)) [Ac-SKLR(SEQ ID NO: 10)-Kbt-Phe-NH2] | 6.26 nM |
| Ac-SKLR-{kbt‑6‑CONH‑4‑pyridine} [Ac-SKLR(SEQ ID NO: 10)-Kbt-4-pyridinylamide] | 3.95 nM |
| B3 | 3.05 nM |
| B4 | 3.6 nM |
| B5 | 54.8 nM |

What follows are binders tested against Hepatocyte Growth Factor Activator (HGFA) serine protease domain, N-terminal His-tag, recombinant (Homo sapiens (Human)) (UniProt Q04756) (assay: fluorogenic inhibition assay).

| Binder | Ki |
| --- | --- |
| H-Trp-Leu-Arg-{kbt-Val-NH2} [H-WLR-kbt-Val-NH2] | 73.9 nM |
| H-Arg-Leu-Arg-{kbt-Val-NH2} [H-RLR-kbt-Val-NH2] | 12.5 nM |
| B1 | 6 nM |
| B2 | 8.75 nM |
| Ac-SKLR-{kbt‑6‑CO-Val-NH2} [Ac-SKLR(SEQ ID NO: 10)-Kbt-Val-NH2] | 13 nM |
| Ac-SKLR (not fully specified (C-terminus)) [Ac-SKLR(SEQ ID NO: 10)-Kbt-Trp-NH2] | 15.8 nM |
| Ac-SKLR (not fully specified (C-terminus)) [Ac-SKLR(SEQ ID NO: 10)-Kbt-Phe-NH2] | 17.3 nM |
| Ac-SKLR-{kbt‑6‑CONH‑4‑pyridine} [Ac-SKLR(SEQ ID NO: 10)-Kbt-4-pyridinylamide] | 31.8 nM |
| B3 | 33 nM |
| B4 | 114 nM |
| B5 | 132 nM |

— patent publication US20180066015A1, “INHIBITORS OF GROWTH FACTOR ACTIVATION ENZYMES” (Washington University, published 2018)
